Experimental findings from US20240360227A1 are described below.

The target in test [1] is Recombinant human his-tagged IGF R extracellular domain protein (human) (UniProt P08069). The test is described as follows: SPR, Ab captured via anti-huIgG Fc, pH 7.4. For orientation: Surface plasmon resonance follows binding to a sensor surface in real time, without labels.
For test [2] the target is unchanged. The test is described as follows: SPR, Ab captured via anti-huIgG Fc, dissociation at pH 6.

For orientation: Kd means the free concentration of one partner at which half of the binding sites on the other are occupied at equilibrium, for simple one-to-one binding. The koff is a measure of how fast the partners let go of each other. What is called kon is the rate constant with which the complex forms.

B1: VRDN-02100 (antibody, human IgG1, kappa, V domains shown)
VH: QVQLQESGPGLVKPSETLSLTCTVSGYSITGGYLWNWIRQPPGKGLEWIGYISYDGTNNYKPSLKDRVTISRDTSKNQFSLKLSSVTAADTAVYYCARYGRVFFDYWGQGTLVTVSS
VL: DIVMTQSPLSLPVTPGEPASISCRSSQSIVHSNGNTYLQWYLQKPGQSPQLLIYKVSNRLYGVPDRFSGSGSGTDFTLKISRVEAEDVGVYYCFQGSHVPWTFGQGTKVEIKR
With B1, in test [1], the dissociation constant Kd came to 0.456 nM, the koff was determined as 4.85e-05 s⁻¹ and the kon was found to be 106000 M⁻¹ s⁻¹. Further, in test [2], the dissociation constant Kd is 1.05 nM, the off-rate (koff) amounted to 9.16e-05 s⁻¹ and the kon was determined as 86800 M⁻¹ s⁻¹.

B2: VRDN-02059 (antibody, V domains shown)
VH: QVQLQESGPGLVKPSETLSLTCTVSGYSITGGYLWNWIRQPPGKGLEWIGYIHYDGTNNYKPSLKDRVTISRDTSKNQFSLKLSSVTAADTAVYYCARYGRVFFDYWGQGTLVTVSS
VL: DIVMTQSPLSLPVTPGEPASISCRSHQSIVHSNGNTYLQWYLQKPGQSPQLLIYKVSNRLYGVPDRFSGSGSGTDFTLKISRVEAEDVGVYYCFQGSHVPWTFGQGTKVEIK
For B2, in test [2], the Kd worked out at 0.228 nM, the dissociation rate constant (koff) worked out at 4.43e-05 s⁻¹ and the kon was determined as 194000 M⁻¹ s⁻¹.

B3: VRDN-02021 (antibody, V domains shown)
VH: QVQLQESGPGLVKPSETLSLTCTVSGYSITGGYLWNWIRQPPGKGLEWIGYISYDGTNNYKPSLKDRVTISRDTSKNQFSLKLSSVTAADTAVYYCARHGRVFFDYWGQGTLVTVSS
VL: DIVMTQSPLSLPVTPGEPASISCRSSQSIVHSNGNTYLQWYLQKPGQSPQLLIYKVSNRLYGVPDRFSGSGSGTDFTLKISRVEAEDVGVYYCFQGSHVPWTFGQGTKVEIK
For B3, in test [1], the Kd came to 0.868 nM, the off-rate (koff) was determined as 5.84e-05 s⁻¹ and the association rate constant (kon) was determined as 67300 M⁻¹ s⁻¹. For the same molecule, in test [2], the Kd worked out at 1.38 nM, the off-rate (koff) turned out to be 0.000137 s⁻¹ and the kon turned out to be 99200 M⁻¹ s⁻¹.

B4: VRDN-02002 (antibody, V domains shown)
VH: QVQLQESGPGLVKPSETLSLTCTVSGHSITGGYLWNWIRQPPGKGLEWIGYISYDGTNNYKPSLKDRVTISRDTSKNQFSLKLSSVTAADTAVYYCARYGRVFFDYWGQGTLVTVSS
VL: DIVMTQSPLSLPVTPGEPASISCRSSQSIVHSNGNTYLQWYLQKPGQSPQLLIYKVSNRLYGVPDRFSGSGSGTDFTLKISRVEAEDVGVYYCFQGSHVPWTFGQGTKVEIK
On to B4, for which, in test [1], the dissociation constant Kd stood at 0.992 nM, the dissociation rate constant (koff) is 0.000104 s⁻¹ and the kon came out at 105000 M⁻¹ s⁻¹. For the same molecule, in test [2], the equilibrium dissociation constant (Kd) amounted to 1.11 nM, the dissociation rate constant (koff) worked out at 9.22e-05 s⁻¹ and the kon is 83000 M⁻¹ s⁻¹.

B5: VRDN-02018 (antibody, V domains shown)
VH: QVQLQESGPGLVKPSETLSLTCTVSGYSITGGYLWNWIRQPPGKGLEWIGYISYDGHNNYKPSLKDRVTISRDTSKNQFSLKLSSVTAADTAVYYCARYGRVFFDYWGQGTLVTVSS
VL: DIVMTQSPLSLPVTPGEPASISCRSSQSIVHSNGNTYLQWYLQKPGQSPQLLIYKVSNRLYGVPDRFSGSGSGTDFTLKISRVEAEDVGVYYCFQGSHVPWTFGQGTKVEIK
Consider B5, for which, in test [1], the dissociation constant (Kd) stood at 0.734 nM, the koff was 7.79e-05 s⁻¹ and the kon amounted to 106000 M⁻¹ s⁻¹. Also, in test [2], the dissociation constant Kd came to 1.26 nM, the koff is 0.000108 s⁻¹ and the kon amounted to 85400 M⁻¹ s⁻¹.

B6: VRDN-02025 (antibody, V domains shown)
VH: QVQLQESGPGLVKPSETLSLTCTVSGYSITGGYLWNWIRQPPGKGLEWIGYISYDGTNNYKPSLKDRVTISRDTSKNQFSLKLSSVTAADTAVYYCARYGRVHFDYWGQGTLVTVSS
VL: DIVMTQSPLSLPVTPGEPASISCRSSQSIVHSNGNTYLQWYLQKPGQSPQLLIYKVSNRLYGVPDRFSGSGSGTDFTLKISRVEAEDVGVYYCFQGSHVPWTFGQGTKVEIK
B6: in test [1], the Kd was 2.08 nM, the off-rate (koff) was determined as 0.000141 s⁻¹ and the kon worked out at 68000 M⁻¹ s⁻¹. Also, in test [2], the Kd was determined as 1.51 nM, the koff turned out to be 9.5e-05 s⁻¹ and the kon turned out to be 63000 M⁻¹ s⁻¹.

B7: VRDN-02001 (antibody, V domains shown)
VH: QVQLQESGPGLVKPSETLSLTCTVSHYSITGGYLWNWIRQPPGKGLEWIGYISYDGTNNYKPSLKDRVTISRDTSKNQFSLKLSSVTAADTAVYYCARYGRVFFDYWGQGTLVTVSS
VL: DIVMTQSPLSLPVTPGEPASISCRSSQSIVHSNGNTYLQWYLQKPGQSPQLLIYKVSNRLYGVPDRFSGSGSGTDFTLKISRVEAEDVGVYYCFQGSHVPWTFGQGTKVEIK
In the case of B7, in test [1], the Kd came out at 0.495 nM, the off-rate constant (koff) turned out to be 5.1e-05 s⁻¹ and the association rate constant (kon) stood at 103000 M⁻¹ s⁻¹. Moreover, in test [2], the Kd came to 1.2 nM, the koff came out at 0.000115 s⁻¹ and the kon was found to be 96000 M⁻¹ s⁻¹.

B8: VRDN-02019 (antibody, V domains shown)
VH: QVQLQESGPGLVKPSETLSLTCTVSGYSITGGYLWNWIRQPPGKGLEWIGYISYDGTHNYKPSLKDRVTISRDTSKNQFSLKLSSVTAADTAVYYCARYGRVFFDYWGQGTLVTVSS
VL: DIVMTQSPLSLPVTPGEPASISCRSSQSIVHSNGNTYLQWYLQKPGQSPQLLIYKVSNRLYGVPDRFSGSGSGTDFTLKISRVEAEDVGVYYCFQGSHVPWTFGQGTKVEIK
On to B8, for which, in test [1], the dissociation constant Kd was 0.549 nM, the off-rate (koff) came to 5.53e-05 s⁻¹ and the kon came to 101000 M⁻¹ s⁻¹. In addition, in test [2], the dissociation constant Kd worked out at 1.18 nM, the koff came to 0.000101 s⁻¹ and the kon stood at 85800 M⁻¹ s⁻¹.

B9: VRDN-02026 (antibody, V domains shown)
VH: QVQLQESGPGLVKPSETLSLTCTVSGYSITGGYLWNWIRQPPGKGLEWIGYISYDGTNNYKPSLKDRVTISRDTSKNQFSLKLSSVTAADTAVYYCARYGRVFHDYWGQGTLVTVSS
VL: DIVMTQSPLSLPVTPGEPASISCRSSQSIVHSNGNTYLQWYLQKPGQSPQLLIYKVSNRLYGVPDRFSGSGSGTDFTLKISRVEAEDVGVYYCFQGSHVPWTFGQGTKVEIK
As for B9, in test [1], the Kd amounted to 2.4 nM, the koff was found to be 9.99e-05 s⁻¹ and the kon is 41500 M⁻¹ s⁻¹. For the same molecule, in test [2], the Kd was 1.64 nM, the off-rate (koff) stood at 6.71e-05 s⁻¹ and the association rate constant (kon) came out at 40800 M⁻¹ s⁻¹.

B10: VRDN-02024 (antibody, V domains shown)
VH: QVQLQESGPGLVKPSETLSLTCTVSGYSITGGYLWNWIRQPPGKGLEWIGYISYDGTNNYKPSLKDRVTISRDTSKNQFSLKLSSVTAADTAVYYCARYGRHFFDYWGQGTLVTVSS
VL: DIVMTQSPLSLPVTPGEPASISCRSSQSIVHSNGNTYLQWYLQKPGQSPQLLIYKVSNRLYGVPDRFSGSGSGTDFTLKISRVEAEDVGVYYCFQGSHVPWTFGQGTKVEIK
As for B10, in test [1], the Kd was found to be 0.449 nM, the koff came out at 5.06e-05 s⁻¹ and the kon is 113000 M⁻¹ s⁻¹. Also, in test [2], the Kd came out at 0.793 nM, the koff was 7.99e-05 s⁻¹ and the kon was found to be 101000 M⁻¹ s⁻¹.

B11: VRDN-02017 (antibody, V domains shown)
VH: QVQLQESGPGLVKPSETLSLTCTVSGYSITGGYLWNWIRQPPGKGLEWIGYISYDHTNNYKPSLKDRVTISRDTSKNQFSLKLSSVTAADTAVYYCARYGRVFFDYWGQGTLVTVSS
VL: DIVMTQSPLSLPVTPGEPASISCRSSQSIVHSNGNTYLQWYLQKPGQSPQLLIYKVSNRLYGVPDRFSGSGSGTDFTLKISRVEAEDVGVYYCFQGSHVPWTFGQGTKVEIK
Take B11: in test [1], the Kd was 1.22 nM, the koff was determined as 0.000118 s⁻¹ and the on-rate constant (kon) amounted to 97000 M⁻¹ s⁻¹. Also, in test [2], the dissociation constant Kd amounted to 1.14 nM, the dissociation rate constant (koff) was 0.00011 s⁻¹ and the association rate constant (kon) stood at 96000 M⁻¹ s⁻¹.

B12: VRDN-02023 (antibody, V domains shown)
VH: QVQLQESGPGLVKPSETLSLTCTVSGYSITGGYLWNWIRQPPGKGLEWIGYISYDGTNNYKPSLKDRVTISRDTSKNQFSLKLSSVTAADTAVYYCARYGHVFFDYWGQGTLVTVSS
VL: DIVMTQSPLSLPVTPGEPASISCRSSQSIVHSNGNTYLQWYLQKPGQSPQLLIYKVSNRLYGVPDRFSGSGSGTDFTLKISRVEAEDVGVYYCFQGSHVPWTFGQGTKVEIK
For B12, in test [1], the dissociation constant (Kd) was 4.4 nM, the koff came to 0.00187 s⁻¹ and the kon is 426000 M⁻¹ s⁻¹. Further, in test [2], the Kd came to 1.23 nM, the koff amounted to 8.97e-05 s⁻¹ and the kon amounted to 72700 M⁻¹ s⁻¹.

B13: VRDN-02020 (antibody, V domains shown)
VH: QVQLQESGPGLVKPSETLSLTCTVSGYSITGGYLWNWIRQPPGKGLEWIGYISYDGTNHYKPSLKDRVTISRDTSKNQFSLKLSSVTAADTAVYYCARYGRVFFDYWGQGTLVTVSS
VL: DIVMTQSPLSLPVTPGEPASISCRSSQSIVHSNGNTYLQWYLQKPGQSPQLLIYKVSNRLYGVPDRFSGSGSGTDFTLKISRVEAEDVGVYYCFQGSHVPWTFGQGTKVEIK
For the molecule B13, in test [1], the equilibrium dissociation constant (Kd) is 0.544 nM, the koff came to 5.16e-05 s⁻¹ and the kon was 94800 M⁻¹ s⁻¹. For the same molecule, in test [2], the Kd was found to be 1.03 nM, the koff turned out to be 9.56e-05 s⁻¹ and the kon amounted to 93200 M⁻¹ s⁻¹.

B14: VRDN-02022 (antibody, V domains shown)
VH: QVQLQESGPGLVKPSETLSLTCTVSGYSITGGYLWNWIRQPPGKGLEWIGYISYDGTNNYKPSLKDRVTISRDTSKNQFSLKLSSVTAADTAVYYCARYHRVFFDYWGQGTLVTVSS
VL: DIVMTQSPLSLPVTPGEPASISCRSSQSIVHSNGNTYLQWYLQKPGQSPQLLIYKVSNRLYGVPDRFSGSGSGTDFTLKISRVEAEDVGVYYCFQGSHVPWTFGQGTKVEIK
Turning to B14, in test [1], the Kd is 8.23 nM, the koff amounted to 0.000775 s⁻¹ and the kon turned out to be 94100 M⁻¹ s⁻¹.

B15: VRDN-02016 (antibody, V domains shown)
VH: QVQLQESGPGLVKPSETLSLTCTVSGYSITGGYLWNWIRQPPGKGLEWIGYISYHGTNNYKPSLKDRVTISRDTSKNQFSLKLSSVTAADTAVYYCARYGRVFFDYWGQGTLVTVSS
VL: DIVMTQSPLSLPVTPGEPASISCRSSQSIVHSNGNTYLQWYLQKPGQSPQLLIYKVSNRLYGVPDRFSGSGSGTDFTLKISRVEAEDVGVYYCFQGSHVPWTFGQGTKVEIK
Turning to B15, in test [1], the Kd is 0.346 nM, the koff is 3.39e-05 s⁻¹ and the kon stood at 98000 M⁻¹ s⁻¹. Further, in test [2], the Kd was determined as 1.31 nM, the koff came to 0.000111 s⁻¹ and the kon is 84300 M⁻¹ s⁻¹.
